Assay results reported in patent US20130171156.

B1: “converted” BMP-1-3 protein (protein)
chain: AATSRPERVWPDGVIPFVIGGNFTGSQRAVFRQAMRHWEKHTCVTFLERTDEDSYIVFTYRPCGCCSYVGRRGGGPQAISIGKNCDKFGIVVHELGHVVGFWHEHTRPDRDRHVSIVRENIQPGQEYNFLKMEPQEVESLGETYDFDSIMHYARNTFSRGIFLDTIVPKYEVNGVKPPIGQRTRLSKGDIAQARKLYKCPACGETLQDSTGNFSSPEYPNGYSAHMHCVWRISVTPGEKIILNFTSLDLYRSRLCWYDYVEVRDGFWRKAPLRGRFCGSKLPEPIVSTDSRLWVEFRSSSNWVGKGFFAVYEAICGGDVKKDYGHIQSPNYPDDYRPSKVCIWRIQVSEGFHVGLTFQSFEIERHDSCAYDYLEVRDGHSESSTLIGRYCGYEKPDDIKSTSSRLWLKFVSDGSINKAGFAVNFFKEVDECSRPNRGGCEQRCLNTLGSYKCSCDPGYELAPDKRRCEAACGGFLTKLNGSITSPGWPKEYPPNKNCIWQLVAPTQYRISLQFDFFETEGNDVCKYDFVEVRSGLTADSKLHGKFCGSEKPEVITSQYNNMRVEFKSDNTVSKKGFKAHFFSDKDECSKDNGGCQQDCVNTFGSYECQCRSGFVLHDNKHDCKEAGCDHKVTSTSGTITSPNWPDKYPSKKECTWAISSTPGHRVKLTFMEMDIESQPECAYDHLEVFDGRDAKAPVLGRFCGSKKPEPVLATGSRMFLRFYSDNSVQRKGFQASHATECGGQVRADVKTKDLYSHAQFGDNNYPGGVDCEWVIVAEEGYGVELVFQTFEVEEETDCGYDYMELFDGYDSTAPRLGRYCGSGPPEEVYSAGDSVLVKFHSDDTITKKGFHLRYTSTKFQDTLHSRK
B2: placental BMP-1-3 protein (protein)
chain: AATSRPERVWPDGVIPFVIGGNFTGSQRAVFRQAMRHWEKHTCVTFLERTDEDSYIVFTYRPCGCCSYVGRRGGGPQAISIGKNCDKFGIVVHELGHVVGFWHEHTRPDRDRHVSIVRENIQPGQEYNFLKMEPQEVESLGETYDFDSIMHYARNTFSRGIFLDTIVPKYEVNGVKPPIGQRTRLSKGDIAQARKLYKCPACGETLQDSTGNFSSPEYPNGYSAHMHCVWRISVTPGEKIILNFTSLDLYRSRLCWYDYVEVRDGFWRKAPLRGRFCGSKLPEPIVSTDSRLWVEFRSSSNWVGKGFFAVYEAICGGDVKKDYGHIQSPNYPDDYRPSKVCIWRIQVSEGFHVGLTFQSFEIERHDSCAYDYQEVRDGHSESSTLIGRYCGYEKPDDIKSTSSRLWLKFVSDGSINKAGFAVNFFKEVDECSRPNRGGCEQRCLNTLGSYKCSCDPGYELAPDKRRCEAACGGFLTKLNGSITSPGWPKEYPPNKNCIWQLVAPTQYRISLQFDFFETEGNDVCKYDFVEVRSGLTADSKLHGKFCGSEKPEVITSQYNNMRVEFKSDNTVSKKGFKAHFFSDKDECSKDNGGCQQDCVNTFGSYECQCRSGFVLHDNKHDCKEAGCDHKVTSTSGTITSPNWPDKYPSKKECTWAISSTPGHRVKLTFMEMDIESQPECAYDHLEVFDGRDAKAPVLGRFCGSKKPEPVLATGSRMFLRFYSDNSVQRKGFQASHATECGGQVRADVKTKDLYSHAQFGDNNYPGGVDCEWVIVAEEGYGVELVFQTFEVEEETDCGYDYMELFDGYDSTAPRLGRYCGSGPPEEVYSAGDSVLVKFHSDDTITKKGFHLRYTSTKFQDTLHSRK

Protein	in vitro processing (enzyme activity) (type IV collagen)	in vitro processing (enzyme activity) (calmodulin, P0DP23)
B1	which properties were not exhibited with the “converted” BMP-1-3 protein	which properties were not exhibited with the “converted” BMP-1-3 protein
B2	processed calmodulin and type IV collagen	processed calmodulin and type IV collagen
